{"source": "paper PMC8605244", "about": "(The Journal of Biological Chemistry, 2021)", "binders": {"B1": {"name": "RASSF5 RA domain mutant D2 (RTRHWKR) (designed binder)", "chain": "EIKQKIDSYNSRERTRHGMKLSEDGTYTGWIKVHLKLRRPVTVPAGIRPQSIYDAIKEVNPAATTDKRTSFYLPLDAIKQLKISSTTTVSEVIQGLLKKFRVVDNPQKFALFKRIHKDGQVLFQKLSIADYPLYLRLLAGPDTDVLSFVLKENETGEV", "notes": "RASSF5 (NORE1A) RA domain, residues 205-362, with RTRHWKR at positions 218, 219, 220, 221, 234, 286, 305 (WT: KHCLFHM); The numbers follow PDB 3DDC; Selected by yeast surface display against Ras-GDP; source: E. coli BL21(DE3), pET28a, purified (Ni beads, Superdex75 SEC)"}, "B2": {"name": "RASSF5 RA domain mutant D3 (FRKFWHK) (designed binder)", "chain": "B1 chain with R14F, T15R, R16K, H17F, K82H, R101K", "notes": "RASSF5 (NORE1A) RA domain, residues 205-362, with FRKFWHK at positions 218, 219, 220, 221, 234, 286, 305 (WT: KHCLFHM); The numbers follow PDB 3DDC; Selected by yeast surface display against Ras-GDP; source: E. coli BL21(DE3), pET28a, purified (Ni beads, Superdex75 SEC)"}, "B3": {"name": "RASSF5 RA domain mutant T2 (YRRLYKR) (designed binder)", "chain": "B1 chain with R14Y, T15R, H17L, W30Y", "notes": "RASSF5 (NORE1A) RA domain, residues 205-362, with YRRLYKR at positions 218, 219, 220, 221, 234, 286, 305 (WT: KHCLFHM); The numbers follow PDB 3DDC; Selected by yeast surface display against Ras-GTP; source: E. coli BL21(DE3), pET28a, purified (Ni beads, Superdex75 SEC)"}, "B4": {"name": "RASSF5 RA domain mutant T3 (WSRLYKR) (designed binder)", "chain": "B1 chain with R14W, T15S, H17L, W30Y", "notes": "RASSF5 (NORE1A) RA domain, residues 205-362, with WSRLYKR at positions 218, 219, 220, 221, 234, 286, 305 (WT: KHCLFHM); The numbers follow PDB 3DDC; Selected by yeast surface display against Ras-GTP; source: E. coli BL21(DE3), pET28a, purified (Ni beads, Superdex75 SEC)"}}, "key": {"[1]": {"molecular_target": "T1, H-Ras, biotinylated, loaded with a nonhydrolyzable GTP analog (Ras-GTP) or with GDP (Ras-GDP) (UniProt P01112 1-189, biotin on the AVI-tag (attached in vivo by BirA))", "T1 construct": "H-Ras; One construct used in two nucleotide states; also called biotinylated-Ras; not shown: His tag, N-terminal, cleaved; AVI-tag, C-terminal, kept", "T1 sequence (P01112 whole entry)": "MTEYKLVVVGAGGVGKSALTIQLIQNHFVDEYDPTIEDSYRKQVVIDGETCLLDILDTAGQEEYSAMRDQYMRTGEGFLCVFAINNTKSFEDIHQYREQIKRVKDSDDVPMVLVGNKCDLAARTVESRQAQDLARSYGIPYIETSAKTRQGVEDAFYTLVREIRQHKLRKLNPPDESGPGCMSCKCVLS", "assay": "SPR; OpenSPR, streptavidin chip; biotinylated Ras in the GDP-bound state immobilised at 50 ug/ml; RASSF5 variants injected at 1.25-20 uM; Ras buffer (Tris 20 mM, NaCl 100 mM, MgCl2 5 mM, pH 7.5) with 0.1% Tween20 and 0.5% BSA; 30 ul/min", "conditions": "both partners purified"}, "[2]": {"molecular_target": "T1, H-Ras, biotinylated, loaded with a …", "assay": "SPR; OpenSPR, streptavidin chip; biotinylated Ras in the GTP-bound state (nonhydrolyzable analog) immobilised at 50 ug/ml; RASSF5 variants injected at 1.25-20 uM; Ras buffer (Tris 20 mM, NaCl 100 mM, MgCl2 5 mM, pH 7.5) with 0.1% Tween20 and 0.5% BSA; 30 ul/min", "conditions": "both partners purified"}}, "note": "Numbering of substitutions follows the chain as printed.", "data": [{"binder": "B1", "values": [{"measurement": "Kd", "setting": "[1]", "result": "1.6 ± 0.3", "unit": "µM"}]}, {"binder": "B2", "values": [{"measurement": "Kd", "setting": "[1]", "result": "1.6 ± 0.2", "unit": "µM"}]}, {"binder": "B3", "values": [{"measurement": "Kd", "setting": "[1]", "result": "3 ± 0.5", "unit": "µM"}]}, {"binder": "B4", "values": [{"measurement": "Kd", "setting": "[2]", "result": "1 ± 0.15", "unit": "µM"}, {"measurement": "Kd", "setting": "[1]", "result": "1.6 ± 0.3", "unit": "µM"}]}]}
